Assay: yeast display, Sf9 membrane polyspecificity reagent, FACS + sequencing; frameworks hold sequencing errors
In short: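 A nanobody's polyreactivity label depends on the gate it was sorted from. Yeast display cells were stained with 10% biotinylated, detergent-solubilized Sf9 membrane reagent for 1 hour at 4 °C, enriched on streptavidin microbeads and sorted by FACS. The low and high (top ~1%) gates were set on anti-HA fluorescence for expression and streptavidin fluorescence for reagent binding.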

| Sequence | polyreactivity (PSR sort gate) |
| --- | --- |
| QVQLVESGGGLVQAGGSLRLSCAASGSIFLIYAMGWYRQAPGKERELVAAISSGGSTYYADSVKGRFTISRDNAKNTVYLQINSLKPEDTAVYYCATYSTSVAYHLYYWGQGTQVTVSS | low polyreactivity |
| QVQLVESGGGLVQAGGSLRLSCAASGSIFLLYAMGWYRQAPGKERELVARISWSGDNTRYADSVKGRFTISPDNAKNTVYLQMNSLKPEDTAVYYCNAYFFYGQWKGYDYWGQGTQVTVSS | low polyreactivity |
| QVQLVESGGGLVQAGGSLRLSCAASGSIFLLYYMGWYRQAPGKERELVAANTWSGGSTYYADSVKGRFTISRDNAKNSVYLQMNSLKPEDTAVYYFAADEPYPTAYEYWGQGTQVTLSS | low polyreactivity |
| QVQLVESGGGLVQAGGSLRLSCAASGSIFLPYAMGWSRQAPGTEREFVAAIRWSTGRTFYADSVKGRFTISRDNAKNTVYLQMNSLKPEDTAVYYCAAKYYDSWYTYRYDYWGQGTQVTVSS | high polyreactivity |
| QVQLVESGGGLVQAGGSLRLSCAASGSIFLRNAMGWYRQAPGKERELVAAITSNGGRTYYADSVKGRFTISRDNAKNTVYLQMNSLKPEDTAVYYCARVTRLGGGDYDYWGQGTQVTVSS | high polyreactivity |
| QVQLVESGGGLVQAGGSLRLSCAASGSIFLRYAMGWYRQAPGKESELVARISWSGGSTYYADSVKGRFTISRDNAKNTVYLQMNSLKPEDTAVYYCAAGFRAYGELDYWGQGTQVTVSS | low polyreactivity |
| QVQLVESGGGLVQAGGSLRLSCAASGSIFLSNAMGWSRQAPGKERELVADIDWTGGDTYYADSVKGRFTISRDNAKNTVYLQMNSLKPEDTAVYYCAADYGYRNLLTEYGYWGQGTQVTVSS | low polyreactivity |
| QVQLVESGGGLVQAGGSLRLSCAASGSIFLSYAMGWYRQAPGKERELVAAITGSGGSTYYADSVKGRFTISRDNAKNTVYLQMNSLKPEDTAVYYCARRRHHVIWYGYWGQGTQVTVSS | low polyreactivity |
| QVQLVESGGGLVQAGGSLRLSCAASGSIFLSYGMGRYRQAPGKERELVATITWSGGSTTYADSVKGRFTISRDNAKNTVYLQMNSLKPEDTAVYYCIALYDVWITLLTYTSSDYWGQGTQVTVSS | low polyreactivity |
| QVQLVESGGGLVQAGGSLRLSCAASGSIFLTYAMGWYRKAPGKERELVAAISGGGNTYYADSVKGRFTISRDNAKNTVYLQKNSLKPEDTAVYYCNAVPHIYAEGTAYNYWGQGTQVTVSS | low polyreactivity |
| QVQLVESGGGLVQAGGSLRLSCAASGSIFLTYDMGWYRQAPGKERELVAAITGSGDSTYYADSVKGRFTISRDNAKNTVYLQMNSLKPEDNAVYYCNADGPSTPWVDYGYWGQGTQVTVSS | low polyreactivity |
| QVQLVESGGGLVQAGGSLRLSCAASGSIFLVNAMGWYRQAPGKERELVAAISWGGGSTYYADSVKGRFTISRDNAKNTVYVQMNSLKPEDTAVYYCAAESYYYIRYFDYSRWMGYWGQGTQVTVSS | low polyreactivity |
| QVQLVESGGGLVQAGGSLRLSCAASGSIFLVNAMGWYRQAPGKERELVAIDGSGGSTYADSVKGRFTISRDNAMNTVYLQMNILKPEDTAVYYCAKDQEGPLYDYWGQGTQVTVSS | low polyreactivity |
| QVQLVESGGGLVQAGGSLRLSCAASGSIFLVTAMGWYRQAPGKERELVAAITFGGDSTYYADSVKGRFTISRDNAKNTVYLQMNSLKPEDTAVYYCAADPSPYGDEYDYWGQGTQVTVSS | low polyreactivity |
| QVQLVESGGGLVQAGGSLRLSCAASGSIFLYARGWYRQAPGKERELVAAINRRGGSTYYADSVKGRFTISRDNAKNTVYLQMNSLKPEDTAVYYCAVVYLLPRYWWRYDYWGQGTQVTVSS | low polyreactivity |
| QVQLVESGGGLVQAGGSLRLSCAASGSIFLYKAMGWYRQAPGKERELVADITSRGGSTYYADSVKGRFTISRDNAKNTVYLQMTSLKPEDTAVYDCNAVSRYVYGNGKNYYWGQGTHVTVSS | high polyreactivity |
| QVQLVESGGGLVQAGGSLRLSCAASGSIFLYNAMGWYRQAPGKERELVAAIRGSDGITFYADSVKGRFTISRDNAKNTVYLQMNSLKPEDTAVYYCAKDTYRSPRHDYGYWGQGTQVTVSS | low polyreactivity |
| QVQLVESGGGLVQAGGSLRLSCAASGSIFLYNAMGWYRQAPGKERELVAAISRSSTSTYYSDSVKGRFTISRDNAKNTVYLQMNSLKPEDTAVYYCAARGRVTYWGQGTQVTVSS | high polyreactivity |
| QVQLVESGGGLVQAGGSLRLSCAASGSIFLYYVMGWYRQAPGKERELVAAITWDGGSTYYADSVKGRFTISRDNAKNTVYLQMNSLKPEDTAVYYCNKDTTYSYYTEPYDYWGQGTQVTVSS | low polyreactivity |
| QVQLVESGGGLVQAGGSLRLSCAASGSIFNANAMGWYRQAPGKERELVAGIRSGSSTNYADSVKGRFTISRDNAKNTVYFQMNSLKPEDTAVYYCATEGYWVYGFDDEDWGQGTQVTVSS | low polyreactivity |
| QVQLVESGGGLVQAGGSLRLSCAASGSIFNGNARGWYRQAPGKERELVAAITRRGGRTYYADSVKGRFTISRDNEKNTVYLQMNSLQPEDTAFYYCATPVDYKTGYYYWVQGTQVTVSS | high polyreactivity |

| Sequence | polyreactivity (PSR sort gate) |
| --- | --- |
| QVQLVESGGGLVQAGGSLRLSCAASGSIFNGYAMGWYRQSPGKERELVAVISGSGGSTYYADSVKGRFTISRDNAKNTVYLQMNSLKPEDTAVYYCAAKPGYYGYWGQGTQVTVSS | high polyreactivity |
| QVQLVESGGGLVQAGGSLRLSCAASGSIFNINAMGWYRQAPGKERELVAAITTSGGRTYYADSVKGRFTISRDNAKNTVYLQMNSLKPEVTAVYYCATSHYGSTGNYWGQGTQVTVSS | low polyreactivity |
| QVQLVESGGGLVQAGGSLRLSCAASGSIFNINAMGWYRQAPGKESELVATITSGGTTSYADSVKGRFTISRDNAKNTVYLQMNSLKPEDTAVYYCNAEIYPIVKAGLQHPRRYDYWGQGTQVTVSS | low polyreactivity |
| QVQLVESGGGLVQAGGSLRLSCAASGSIFNIYAMGLYRQAPGKERELVATITGIADSTYYADSVKGRFTISRDNAKNTVYLQMNSLKPEDTAVYYCAADKYVAEYDYWGQGTQVTVSS | low polyreactivity |
| QVQLVESGGGLVQAGGSLRLSCAASGSIFNIYAMGWYRQAPGKERELVAAIRWTGGSTYYADSVKGRFTISRDNAKNTVYLQMHSLKPEDTALYYSAARTSRGGHYYWGHGTQVTVSS | high polyreactivity |
| QVQLVESGGGLVQAGGSLRLSCAASGSIFNLYAMGWYRQAPGKERELVAGIRWSGGRTYYADSVKGRFTISRDNAKNTVYLQMNSLKPEDTAVYYCNAVGYLSWWNDYDYWGQGTQVTVSS | high polyreactivity |
| QVQLVESGGGLVQAGGSLRLSCAASGSIFNPYVMGWYRQAPGKERELVAAISSSGGRTYYADSVKGRFTISRDNAKNTVYLQMNSLKPEDTAVYYCAAIPRQGYDYWGQGTQVTVSS | high polyreactivity |
| QVQLVESGGGLVQAGGSLRLSCAASGSIFNRYAMGWYRQAPGKERELVAAITWNGGSTYYADSVKGRFTISRDNAKNTVYLQMNSLKPEDTAVYYCNKASLRGSYARYSYDYWGQGTQVTVSS | high polyreactivity |
| QVQLVESGGGLVQAGGSLRLSCAASGSIFNTYAMGWYRQAPGKERELVAAISRSGDSTYYADSVKGRFTISRDNAKNTVYLQMNSLKPEDSAVYYCATGRTDHGYYYWGQGTQVTVSS | high polyreactivity |
| QVQLVESGGGLVQAGGSLRLSCAASGSIFNWNTMGWYRQAPGKERELVAAITYDGGTTYYADSVKGRFTISRDNAKNTVYLQMNSLKPEDTAVYYCAAEFLYKYGRYDYWGQGTQVTVSS | high polyreactivity |
| QVQLVESGGGLVQAGGSLRLSCAASGSIFNWNTMGWYRQAPGKERELVAAITYDGGTTYYADSVKGRFTISRDYAKNNVYLQMISLKPEDTAVYYCAAEFLYKYGRYDYWGQGTQVTVSS | high polyreactivity |
| QVQLVESGGGLVQAGGSLRLSCAASGSIFNYNDMGWYRQAPGKERELVAAIDSSGTSTYYADSVKGRFTISRDNAKNTVYLQMNSLKPEDTAVYYCNADSSLGFGYWGQGTLVTVSS | low polyreactivity |
| QVQLVESGGGLVQAGGSLRLSCAASGSIFNYNDMGWYRQAPGKERELVAAIDSSGTSTYYADSVKGRFTISRDNAKNTVYLQMTSLKPEDTAVYYCNADYRGWGYHMDYWGQGTQVTVSS | low polyreactivity |
| QVQLVESGGGLVQAGGSLRLSCAASGSIFNYNTMGWYRQAPGKERELVADISWSGGSTYYADSVKGRFTISRDNAKNTVYLQMNSLKPEDTAVYYCAADFGLFPYVGTGYYYWGQGTQVTVSS | low polyreactivity |
| QVQLVESGGGLVQAGGSLRLSCAASGSIFNYYAMGWYRQAPGKERDLVAAITTSGGNTYYADSVKGRFTISRDNAKNTVYLLMYSLKPEDTAVYYCAADYWASGGEYDYWGQGTQVSVSS | low polyreactivity |
| QVQLVESGGGLVQAGGSLRLSCAASGSIFPANAMGWYRQAPGKERELVAAISRRGGNTNYADSVKGRFTISRDNAKNTVYLQMNSLKPEDTAVYYCAAYYYYRRYDYWGQGTQVTVSS | high polyreactivity |
| QVQLVESGGGLVQAGGSLRLSCAASGSIFPANAMGWYRQAPGKEWEFVAAINWSTGTTYYADSVKGRFTIARDNAKNTVYLQMNRLKPEETPVYYCNASDQAKYDYWGQGTQVTVSS | low polyreactivity |
| QVQLVESGGGLVQAGGSLRLSCAASGSIFPANAMGWYRQPPGKERELVAAISRRGGNTYYADSVKGRFTISRDNAKNTVYLQMNSLKPEDTAVYYCAAYYFYRRYDYWGQGTQVTVSS | high polyreactivity |
| QVQLVESGGGLVQAGGSLRLSCAASGSIFPAYAMGWYRQAPGKERELVASITGSGGSTYYADSVKGRFTISRDNAKNTVYLQMNSLKPEDTAVYYCNARYYVYSATVDRYYHFYYWGQGTQVTVSS | high polyreactivity |
| QVQLVESGGGLVQAGGSLRLSCAASGSIFPAYTMGWYRQAPGKERELVAAIPYSGARSTYYADSVKGRVTNSRDNAKNTVYLQMNSLKPEDTAVYYCNARDRARYFYDMDYWGQGTQVTVSS | low polyreactivity |
